Measurements taken from article PMC7949154, “Heat shock transcription factor 1 is SUMOylated in the activated trimeric state” (The Journal of Biological Chemistry, 2020).

B1: Heat shock transcription factor 1 (Hsf1), wildtype, Q00613 1-529 (natural protein)
chain: MDLPVGPGAAGPSNVPAFLTKLWTLVSDPDTDALICWSPSGNSFHVFDQGQFAKEVLPKYFKHNNMASFVRQLNMYGFRKVVHIEQGGLVKPERDDTEFQHPCFLRGQEQLLENIKRKVTSVSTLKSEDIKIRQDSVTKLLTDVQLMKGKQECMDSKLLAMKHENEALWREVASLRQKHAQQQKVVNKLIQFLISLVQSNRILGVKRKIPLMLNDSGSAHSMPKYSRQFSLEHVHGSGPYSAPSPAYSSSSLYAPDAVASSGPIISDITELAPASPMASPGGSIDERPLSSSPLVRVKEEPPSPPQSPRVEEASPGRPSSVDTLLSPTALIDSILRESEPAPASVTALTDARGHTDTEGRPPSPPPTSTPEKCLSVACLDKNELSDHLDAMDSNLDNLQTMLSSHGFSVDTSALLDLFSPSVTVPDMSLPDLDSSLASIQELLSPQEPPRPPEAENSSPDSGKQLVHYTAQPLFLLDPGSVDTGSNDLPVLFELGEGSYFSEGDGFAEDPTISLLTGSEPPKAKDPTVS
B2: Hsf1–K298R,S303E,S307E (natural protein, human, UniProt Q00613 1-529, looked up)
chain: MDLPVGPGAAGPSNVPAFLTKLWTLVSDPDTDALICWSPSGNSFHVFDQGQFAKEVLPKYFKHNNMASFVRQLNMYGFRKVVHIEQGGLVKPERDDTEFQHPCFLRGQEQLLENIKRKVTSVSTLKSEDIKIRQDSVTKLLTDVQLMKGKQECMDSKLLAMKHENEALWREVASLRQKHAQQQKVVNKLIQFLISLVQSNRILGVKRKIPLMLNDSGSAHSMPKYSRQFSLEHVHGSGPYSAPSPAYSSSSLYAPDAVASSGPIISDITELAPASPMASPGGSIDERPLSSSPLVRVREEPPEPPQEPRVEEASPGRPSSVDTLLSPTALIDSILRESEPAPASVTALTDARGHTDTEGRPPSPPPTSTPEKCLSVACLDKNELSDHLDAMDSNLDNLQTMLSSHGFSVDTSALLDLFSPSVTVPDMSLPDLDSSLASIQELLSPQEPPRPPEAENSSPDSGKQLVHYTAQPLFLLDPGSVDTGSNDLPVLFELGEGSYFSEGDGFAEDPTISLLTGSEPPKAKDPTVS
notes: Heat shock transcription factor 1 (Hsf1), human, full length, K298R in the S303E,S307E variant; also called REE; EE,K298R; source: E. coli BL21(DE3) Rosetta, purified (Ni-IDA, tag cleaved with tobacco etch virus protease, SEC)
B3: Hsf1–S303E,S307E (double phosphomimetic variant) (natural protein, human, UniProt Q00613 1-529, looked up)
chain: MDLPVGPGAAGPSNVPAFLTKLWTLVSDPDTDALICWSPSGNSFHVFDQGQFAKEVLPKYFKHNNMASFVRQLNMYGFRKVVHIEQGGLVKPERDDTEFQHPCFLRGQEQLLENIKRKVTSVSTLKSEDIKIRQDSVTKLLTDVQLMKGKQECMDSKLLAMKHENEALWREVASLRQKHAQQQKVVNKLIQFLISLVQSNRILGVKRKIPLMLNDSGSAHSMPKYSRQFSLEHVHGSGPYSAPSPAYSSSSLYAPDAVASSGPIISDITELAPASPMASPGGSIDERPLSSSPLVRVKEEPPEPPQEPRVEEASPGRPSSVDTLLSPTALIDSILRESEPAPASVTALTDARGHTDTEGRPPSPPPTSTPEKCLSVACLDKNELSDHLDAMDSNLDNLQTMLSSHGFSVDTSALLDLFSPSVTVPDMSLPDLDSSLASIQELLSPQEPPRPPEAENSSPDSGKQLVHYTAQPLFLLDPGSVDTGSNDLPVLFELGEGSYFSEGDGFAEDPTISLLTGSEPPKAKDPTVS
notes: Heat shock transcription factor 1 (Hsf1), human, full length, phosphomimetic S303E,S307E; theoretical mass 57,270.43 Da; also called EE; source: E. coli BL21(DE3) Rosetta, purified (Ni-IDA, tag cleaved with tobacco etch virus protease, SEC; monomeric and trimeric fractions)

Assays:
[1] = biological target: T1, Heat shock transcription factor 1 (Hsf1), wildtype (human), Q00613; test: native gel or EMSA; Blue native PAGE (8% gel, on ice) of monomeric Hsf1 and of Hsf1 monomers heat shocked at 42 °C for 10 min; samples taken at 0 and 3 h of incubation at 25 °C (Figure S1); details: remark: other sources report otherwise
T1 chain: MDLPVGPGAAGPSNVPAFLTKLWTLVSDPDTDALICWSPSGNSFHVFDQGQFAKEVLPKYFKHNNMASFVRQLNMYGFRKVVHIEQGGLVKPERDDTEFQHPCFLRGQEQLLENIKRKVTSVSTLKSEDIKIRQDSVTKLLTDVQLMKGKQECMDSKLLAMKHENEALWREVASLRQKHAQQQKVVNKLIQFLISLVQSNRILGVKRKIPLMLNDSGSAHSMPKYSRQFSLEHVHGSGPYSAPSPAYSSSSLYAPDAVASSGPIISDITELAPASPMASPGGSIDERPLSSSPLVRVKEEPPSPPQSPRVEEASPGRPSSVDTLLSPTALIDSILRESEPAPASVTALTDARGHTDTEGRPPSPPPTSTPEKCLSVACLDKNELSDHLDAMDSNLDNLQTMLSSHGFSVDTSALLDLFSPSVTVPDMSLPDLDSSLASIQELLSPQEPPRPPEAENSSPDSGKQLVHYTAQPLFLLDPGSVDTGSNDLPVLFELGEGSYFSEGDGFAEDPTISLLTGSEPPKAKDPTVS

[2] = biological target: the molecule itself; test: as above

Row | Binder | stoichiometry N [1] | stoichiometry N [2]
1 | B1 | 3 | –
2 | B2 | – | 3
3 | B3 | – | 3
